Each block holds one binder with its values, some of them ahead of it.
Key:
[1] = target: T1, recombinant human CTNNA3 (CTNNA3-FLAG) (human, UniProt Q9UI47-1 1-895); experiment: co-IP
T1 sequence (looked up): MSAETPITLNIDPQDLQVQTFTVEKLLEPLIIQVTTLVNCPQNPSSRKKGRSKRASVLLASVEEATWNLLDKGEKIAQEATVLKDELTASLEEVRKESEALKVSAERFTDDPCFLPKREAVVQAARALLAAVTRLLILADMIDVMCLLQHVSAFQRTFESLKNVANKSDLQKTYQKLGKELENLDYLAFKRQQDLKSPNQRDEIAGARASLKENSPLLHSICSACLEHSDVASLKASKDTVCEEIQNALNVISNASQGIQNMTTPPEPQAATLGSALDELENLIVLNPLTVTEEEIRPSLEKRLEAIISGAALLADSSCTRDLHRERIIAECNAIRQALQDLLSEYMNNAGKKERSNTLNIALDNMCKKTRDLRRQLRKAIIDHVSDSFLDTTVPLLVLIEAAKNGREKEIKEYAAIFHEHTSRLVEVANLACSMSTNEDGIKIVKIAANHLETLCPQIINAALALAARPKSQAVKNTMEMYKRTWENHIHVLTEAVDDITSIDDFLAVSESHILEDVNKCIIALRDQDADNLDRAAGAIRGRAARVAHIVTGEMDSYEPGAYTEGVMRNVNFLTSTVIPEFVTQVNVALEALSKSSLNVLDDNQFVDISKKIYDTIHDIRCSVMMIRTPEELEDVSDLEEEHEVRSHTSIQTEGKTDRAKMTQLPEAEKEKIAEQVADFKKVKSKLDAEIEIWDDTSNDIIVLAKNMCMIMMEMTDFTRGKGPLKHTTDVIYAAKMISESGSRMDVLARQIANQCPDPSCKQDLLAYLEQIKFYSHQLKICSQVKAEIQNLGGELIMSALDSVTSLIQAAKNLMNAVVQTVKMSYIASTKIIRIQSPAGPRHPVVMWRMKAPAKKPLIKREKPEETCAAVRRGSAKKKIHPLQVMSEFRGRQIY

[2] = target: recombinant human p53 (p53-FLAG) (human, UniProt P04637 1-393); experiment: co-IP
Sequence of recombinant human p53 (p53-FLAG) (P04637 whole entry): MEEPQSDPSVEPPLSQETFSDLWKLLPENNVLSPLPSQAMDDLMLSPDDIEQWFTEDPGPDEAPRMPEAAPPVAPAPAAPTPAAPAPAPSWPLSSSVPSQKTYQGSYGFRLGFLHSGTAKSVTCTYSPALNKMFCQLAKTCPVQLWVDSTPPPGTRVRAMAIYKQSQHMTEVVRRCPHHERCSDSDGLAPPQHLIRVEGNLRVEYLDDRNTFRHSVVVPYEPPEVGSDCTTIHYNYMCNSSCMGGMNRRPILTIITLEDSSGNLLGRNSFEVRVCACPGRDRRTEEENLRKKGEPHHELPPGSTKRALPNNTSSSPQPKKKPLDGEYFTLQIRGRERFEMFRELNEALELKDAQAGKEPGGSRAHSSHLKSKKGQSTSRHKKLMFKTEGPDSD

[3] = target: T1, recombinant human CTNNA3 (CTNNA3-FLAG); experiment: MST
[4] = target: T1, recombinant human CTNNA3 (CTNNA3-FLAG); experiment: BLI

binding result [1]: binds
binding result [2]: binds
B1: recombinant human FLAG-tagged fortilin (fortilin-FLAG) (natural protein, UniProt P13693 1-172, looked up)
chain: MIIYRDLISHDEMFSDIYKIREIADGLCLEVEGKMVSRTEGNIDDSLIGGNASAEGPEGEGTESTVITGVDIVMNHHLQETSFTKEAYKKYIKDYMKSIKGKLEEQRPERVKPFMTGAAEQIKHILANFKNYQFFIGENMNPDGMVALLDYREDGVTPYMIFFKDGLEMEKC

Kd [3]: 33.2 nM
B2: recombinant human fortilin (rh-fortilin), Strep-tagged, red-maleimide-labelled (natural protein, UniProt P13693 1-172, looked up)
chain: B1 chain
modifications: red-maleimide fluorescent dye (Monolith red-maleimide 2nd generation protein labeling kit)

Kd [4]: 36.1 nM
B3: recombinant human fortilin (rh-fortilin), Strep-tagged, biotinylated (natural protein, UniProt P13693 1-172, looked up)
chain: B1 chain
modifications: biotin
